Results: patent US20030040461
Positions count from the first letter of the chain named. Names may count otherwise.

B1: FLAG-BTK wild-type (murine BTK with N-terminal 3XFLAG tag) (enzyme)
chain: MAAVILESIFLKRSQQKKKTSPLNFKKRLFLLTVHKLSYYEYDFERGRRGSKKGSIDVEKITCVETVIPEKNPPPERQIPRRGEESSEMEQISIIERFPYPFQVVYDEGPLYVFSPTEELRKRWIHQLKNVIRYNSDLVQKYHPCFWIDGQYLCCSQTAKNAMGCQILENRNGSLKPGSSHRKTKKPLPPTPEEDQILKKPLPPEPTAAPISTTELKKVVALYDYMPMNANDLQLRKGEEYFILEESNLPWWRARDKNGQEGYIPSNYITEAEDSIEMYEWYSKHMTRSQAEQLLKQEGKEGGFIVRDSSKAGKYTVSVFAKSTGEPQGVIRHYVVCSTPQSQYYLAEKHLFSTIPELINYHQHNSAGLISRLKYPVSKQNKNAPSTAGLGYGSWEIDPKDLTFLKELGTGQFGVVKYGKWRGQYDVAIKMIREGSMSEDEFIEEAKVMMNLSHEKLVQLYGVCTKQRPIFIITEYMANGCLLNYLREMRHRFQTQQLLEMCKDVCEAMEYLESKQFLHRDLAARNCLVNDQGVVKVSDFGLSRYVLDDEYTSSVGSKFPVRWSPPEVLMYSKFSSKSDIWAFGVLMWEIYSLGKMPYERFTNSETAEHIAQGLRLYRPHLASERVYTIMYSCWHEKADERPSFKILLSNILDVMDEES
modifications: N-terminal 3xFLAG tag
B2: FLAG-BTK K430R (dominant negative mutant of murine BTK with N-terminal 3XFLAG tag) (enzyme)
chain: B1 chain with K430R
modifications: N-terminal 3xFLAG tag
B3: FLAG-BTK R28C (xid mutant of murine BTK with N-terminal 3XFLAG tag) (enzyme)
chain: B1 chain with R28C
modifications: N-terminal 3xFLAG tag
B4: FLAG-BTK E41K (gain of function mutant of murine BTK with N-terminal 3XFLAG tag) (enzyme)
chain: B1 chain with E41K
modifications: N-terminal 3xFLAG tag

System: T1, purified recombinant SLP-76
T1 sequence (Q13094 1-533, species assumed, looked up): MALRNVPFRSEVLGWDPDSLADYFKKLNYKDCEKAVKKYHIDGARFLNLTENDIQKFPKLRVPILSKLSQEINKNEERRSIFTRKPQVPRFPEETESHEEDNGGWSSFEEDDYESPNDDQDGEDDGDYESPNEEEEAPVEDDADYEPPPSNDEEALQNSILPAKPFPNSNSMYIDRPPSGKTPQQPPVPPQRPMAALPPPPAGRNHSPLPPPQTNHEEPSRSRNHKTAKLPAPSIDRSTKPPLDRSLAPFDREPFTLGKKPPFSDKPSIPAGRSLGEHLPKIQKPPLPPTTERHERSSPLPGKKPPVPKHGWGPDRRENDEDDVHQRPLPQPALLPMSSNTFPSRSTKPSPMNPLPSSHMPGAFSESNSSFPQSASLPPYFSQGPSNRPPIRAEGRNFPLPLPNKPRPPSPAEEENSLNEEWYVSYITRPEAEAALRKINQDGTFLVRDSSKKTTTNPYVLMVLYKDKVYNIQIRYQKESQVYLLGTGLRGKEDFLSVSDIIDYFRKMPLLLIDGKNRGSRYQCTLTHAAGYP

| Protein | phosphorylation of SLP 76 (incorporation of phosphotyrosine into the substrate, IP kinase assay) | kinase activity |
| --- | --- | --- |
| B1 | addition of immunoprecipitated wild-type BTK resulted in phosphorylation of both BTK itself and the SLP 76 target |  |
| B2 | Phosphorylation using extracts from the “gain of function” and dominant negative mutant cell contracts appeared to be reduced compared to the wild-type BTK |  |
| B3 | Addition of BTK immunoprecipitated from the xid construct cell lysate resulted in hyperphosphorylation of the SLP 76 target | the kinase activity of BTK isolated from the xid mutant stable cell pool was significantly higher (approximately 10 fold) |
| B4 | Phosphorylation using extracts from the “gain of function” and dominant negative mutant cell contracts appeared to be reduced compared to the wild-type BTK |  |
